One test concerns the target HLA-A*2401 (human). The test can be described thus: competition with a 125I-labelled probe peptide for purified HLA, gel filtration; binding relative to the standard peptide. For orientation: In gel filtration, larger molecules generally elute earlier.
In the next test the target is HLA-A*0301 (human). Nature of the test: competition with 125I-labelled probe peptide for purified HLA, gel filtration; value relative to standard peptide.

Take “HBV ENV 177 8-mer peptide […] (peptide; other documents disagree on this pair)”: in the test with HLA-A*0201 (human), the binding affinity ratio (IC50 of standard peptide / IC50 of test peptide) came out at 0.0019.

For the substance “HBV ENV 177 9-mer peptide […] (peptide; other documents disagree on this pair)”, in the test with HLA-A*0201 (human), the binding affinity ratio (IC50 of standard peptide / IC50 of test peptide) was 0.066. As to “HBV ENV 177 10-mer peptide […] (peptide; other documents disagree on this pair)”, the binding affinity ratio (IC50 of standard peptide / IC50 of test peptide) with HLA-A*0201 (human) came out at 0.0011. For the substance HBV ENV 362 peptide WYWGPSLY, the binding affinity ratio (IC50 of standard peptide / IC50 of test peptide) in the test with HLA-A*2401 (human) was 0.0001. On to HBV POL 377 LWDFSQF (peptide), for which, in the test with HLA-A*0301 (human), the binding affinity ratio (IC50 of standard peptide / IC50 of test peptide) worked out at 0.0016. “[…] (HBV ENV 249, 15-mer) (peptide; other documents disagree on this pair)”: the binding affinity ratio (IC50 of standard peptide / IC50 of test peptide) with HLA-DRB1*0101 (human) stood at 0.0026; in the test with HLA-DRB1*0701 (human), 0.0047; in the test with HLA-DRB1*1101 (human) it was 0.0018; with HLA-DRB5*0101 (human), 0.0069; with HLA-DRB1*0401 (human), 0.032.
